From patent US20240376166A1 (BOSTON MEDICAL CENTER, published 2024)

Target: the molecule itself
Experiment: native gel of lysates from non-stressed cells (self-association; cells also hold endogenous NPM); FIG. 5B

B1: flag-tagged NPM normal mimic (T86A-S88A-T95A-T234E-S242E) (other)
chain: MEDSMDMDMSPLRPQNYLFGCELKADKDYHFKVDNDENEHQLSLRTVSLGAGAKDELHIVEAEAMNYEGSPIKVTLATLKMSVQPAVALGGFEIAPPVVLRLKCGSGPVHISGQHLVAVEEDAESEDEEEEDVKLLSISGKRSAPGGGSKVPQKKVKLAADEDDDDDDEEDDDEDDDDDDFDDEEAEEKAPVKKSIRDTPAKNAQKSNQNGKDSKPSSTPRSKGQESFKKQEKEPKTPKGPESVEDIKAKMQASIEKGGSLPKVEAKFINYVKNCFRMTDQEAIQDLWQWRKSL
notes: Lentiviral expression in primary PTEC; also called normal mimic NPM; NrNPM; not shown: amino-terminal flag tag
Does B1 bind?
Result: binds
